Results taken from the supplement of paper PMC11316812.
± gives the standard deviation of the averaged measurements.

Columns and labels:
[1] = tested on: MCF7; assay: percentage of EdU-negative (G0-arrested) nuclei per well, 72 h; higher = more G0 arrest; details: reference: sequence is the full UniProt precursor, the tested protein was the secreted form or ectodomain
[2] = tested on: hTERT-HMEC; assay: as above; details: reference: sequence is the full UniProt precursor, the tested protein was the secreted form or ectodomain
[3] = protein concentration 0.00914286 µM
[4] = protein concentration 0.0914286 µM
[5] = protein concentration 0.0292375 µM
[6] = protein concentration 0.292375 µM
[7] = protein concentration 0.0225 µM
[8] = protein concentration 0.022125 µM
[9] = protein concentration 0.22125 µM
[10] = protein concentration 0.03125 µM
[11] = protein concentration 0.3125 µM
[12] = protein concentration 0.02125 µM
[13] = protein concentration 0.2125 µM
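Note: secreted proteins added to cultured cells, EdU pulse at the end, nuclei found by Hoechst imaging, EdU status from nuclear versus surrounding ring intensity ratio, PBS as neutral control.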

Sequence	percentage of EdU-negative [1, 7] [%]	percentage of EdU-negative ([1]; protein concentration 0.225 µM) [%]	percentage of EdU-negative [2, 7] [%]	percentage of EdU-negative ([2]; protein concentration 0.225 µM) [%]	further results
MDLWNLSWFLFLDALLVISGLATPENFDVDGGMDQDIFDINEGLGLDLFEGDIRLDRAQIRNSIIGEKYRWPHTIPYVLEDSLEMNAKGVILNAFERYRLKTCIDFKPWAGETNYISVFKGSGCWSSVGNRRVGKQELSIGANCDRIATVQHEFLHALGFWHEQSRSDRDDYVRIMWDRILSGREHNFNTYSDDISDSLNVPYDYTSVMHYSKTAFQNGTEPTIVTRISDFEDVIGQRMDFSDSDLLKLNQLYNCSSSLSFMDSCSFELENVCGMIQSSGDNADWQRVSQVPRGPESDHSNMGQCQGSGFFMHFDSSSVNVGATAVLESRTLYPKRGFQCLQFYLYNSGSESDQLNIYIREYSADNVDGNLTLVEEIKEIPTGSWQLYHVTLKVTKKFRVVFEGRKGSGASLGGLSIDDINLSETRCPHHIWHIRNFTQFIGSPNGTLYSPPFYSSKGYAFQIYLNLAHVTNAGIYFHLISGANDDQLQWPCPWQQATMTLLDQNPDIRQRMSNQRSITTDPFMTTDNGNYFWDRPSKVGTVALFSNGTQFRRGGGYGTSAFITHERLKSRDFIKGDDVYILLTVEDISHLNSTQIQLTPAPSVQDLCSKTTCKNDGVCTVRDGKAECRCQSGEDWWYMGERCEKRGSTRDTIVIAVSSTVAVFALMLIITLVSVYCTRKKYRERMSSNRPNLTPQNQHAF	–	–	–	–	percentage of EdU-negative [1, 3]: 24.7 ± 3.1%; percentage of EdU-negative [1, 4]: 27.5 ± 1.1%; percentage of EdU-negative [2, 3]: 6.01 ± 0.12%; percentage of EdU-negative [2, 4]: 6.74 ± 0.94%
MDLWQLLLTLALAGSSDAFSGSEATAAILSRAPWSLQSVNPGLKTNSSKEPKFTKCRSPERETFSCHWTDEVHHGTKNLGPIQLFYTRRNTQEWTQEWKECPDYVSAGENSCYFNSSFTSIWIPYCIKLTSNGGTVDEKCFSVDEIVQPDPPIALNWTLLNVSLTGIHADIQVRWEAPRNADIQKGWMVLEYELQYKEVNETKWKMMDPILTTSVPVYSLKVDKEYEVRVRSKQRNSGNYGEFSEVLYVTLPQMSQFTCEEDFYFPWLLIIIFGIFGLTVMLFVFLFSKQQRIKMLILPPVPVPKIKGIDPDLLKEGKLEEVNTILAIHDSYKPEFHSDDSWVEFIELDIDEPDEKTEESDTDRLLSSDHEKSHSNLGVKDGDSGRTSCCEPDILETDFNANDIHEGTSEVAQPQRLKGEADLLCLDQKNQNNSPYHDACPATQQPSVIQAEKNKPQPLPTEGAESTHQAAHIQLSNPSSLSNIDFYAQVSDITPAGSVVLSPGQKNKAGMSQCDMHPEMVSLCQENFLMDNAYFCEADAKKCIPVAPHIKVESHIQPSLNQEDIYITTESLTTAAGRPGTGEHVPGSEMPVPDYTSIHIVQSPQGLILNATALPLPDKEFLSSCGYVSTDQLNKIMP	–	–	–	–	percentage of EdU-negative [1, 5]: 25 ± 3.3%; percentage of EdU-negative [1, 6]: 24.5 ± 1.6%; percentage of EdU-negative [2, 5]: 4.42 ± 0.8%; percentage of EdU-negative [2, 6]: 6.44 ± 1.3%
MDMAWQMMQLLLLALVTAAGSAQPRSARARTDLLNVCMNAKHHKTQPSPEDELYGQCSPWKKNACCTASTSQELHKDTSRLYNFNWDHCGKMEPTCKRHFIQDSCLYECSPNLGPWIRQVNQSWRKERILNVPLCKEDCERWWEDCRTSYTCKSNWHKGWNWTSGINECPAGALCSTFESYFPTPAALCEGLWSHSFKVSNYSRGSGRCIQMWFDSAQGNPNEEVAKFYAAAMNAGAPSRGIIDS [A0A087WXL1]	25.4 ± 0.5	24 ± 1.3	5.28 ± 0.77	4.93 ± 0.46	–
MDMWTALLILQALLLPSLADGATPALRFVAVGDWGGVPNAPFHTAREMANAKEIARTVQILGADFILSLGDNFYFTGVQDINDKRFQETFEDVFSDRSLRKVPWYVLAGNHDHLGNVSAQIAYSKISKRWNFPSPFYRLHFKIPQTNVSVAIFMLDTVTLCGNSDDFLSQQPERPRDVKLARTQLSWLKKQLAAAREDYVLVAGHYPVWSIAEHGPTHCLVKQLRPLLATYGVTAYLCGHDHNLQYLQDENGVGYVLSGAGNFMDPSKRHQRKVPNGYLRFHYGTEDSLGGFAYVEISSKEMTVTYIEASGKSLFKTRLPRRARP	–	–	–	–	percentage of EdU-negative [1, 8]: 24.4 ± 1.2%; percentage of EdU-negative [1, 9]: 28.4 ± 1.4%; percentage of EdU-negative [2, 8]: 4.67 ± 0.33%; percentage of EdU-negative [2, 9]: 8.42 ± 0.15%
MDPGLQQALNGMAPPGDTAMHVPAGSVASHLGTTSRSYFYLTTATLALCLVFTVATIMVLVVQRTDSIPNSPDNVPLKGGNCSEDLLCILKRAPFKKSWAYLQVAKHLNKTKLSWNKDGILHGVRYQDGNLVIQFPGLYFIICQLQFLVQCPNNSVDLKLELLINKHIKKQALVTVCESGMQTKHVYQNLSQFLLDYLQVNTTISVNVDTFQYIDTSTFPLENVLSIFLYSNSD	28 ± 0.99	27.5 ± 1.8	4.46 ± 0.73	6.03 ± 0.4	–
MDPKGLLSLTFVLFLSLAFGASYGTGGRMMNCPKILRQLGSKVLLPLTYERINKSMNKSIHIVVTMAKSLENSVENKIVSLDPSEAGPPRYLGDRYKFYLENLTLGIRESRKEDEGWYLMTLEKNVSVQRFCLQLRLYEQVSTPEIKVLNKTQENGTCTLILGCTVEKGDHVAYSWSEKAGTHPLNPANSSHLLSLTLGPQHADNIYICTVSNPISNNSQTFSPWPGCRTDPSETKPWAVYAGLLGGVIMILIMVVILQLRRRGKTNHYQTTVEKKSLTIYAQVQKPGPLQKKLDSFPAQDPCTTIYVAATEPVPESVQETNSITVYASVTLPES	24.3 ± 0.12	23.1 ± 0.27	5.0759 ± 0.002	5.04 ± 0.53	–
MDPKLGRMAASLLAVLLLLLERGMFSSPSPPPALLEKVFQYIDLHQDEFVQTLKEWVAIESDSVQPVPRFRQELFRMMAVAADTLQRLGARVASVDMGPQQLPDGQSLPIPPVILAELGSDPTKGTVCFYGHLDVQPADRGDGWLTDPYVLTEVDGKLYGRGATDNKGPVLAWINAVSAFRALEQDLPVNIKFIIEGMEEAGSVALEELVEKEKDRFFSGVDYIVISDNLWISQRKPAITYGTRGNSYFMVEVKCRDQDFHSGTFGGILHEPMADLVALLGSLVDSSGHILVPGIYDEVVPLTEEEINTYKAIHLDLEEYRNSSRVEKFLFDTKEEILMHLWRYPSLSIHGIEGAFDEPGTKTVIPGRVIGKFSIRLVPHMNVSAVEKQVTRHLEDVFSKRNSSNKMVVSMTLGLHPWIANIDDTQYLAAKRAIRTVFGTEPDMIRDGSTIPIAKMFQEIVHKSVVLIPLGAVDDGEHSQNEKINRWNYIEGTKLFAAFFLEMAQLH [Q96KN2]	–	–	–	–	percentage of EdU-negative [1, 10]: 24.9 ± 0.15%; percentage of EdU-negative [1, 11]: 23 ± 2.2%; percentage of EdU-negative [2, 10]: 5.23 ± 0.23%; percentage of EdU-negative [2, 11]: 5.9 ± 0.65%
MDPQCTMGLSNILFVMAFLLSGAAPLKIQAYFNETADLPCQFANSQNQSLSELVVFWQDQENLVLNEVYLGKEKFDSVHSKYMGRTSFDSDSWTLRLHNLQIKDKGLYQCIIHHKKPTGMIRIHQMNSELSVLANFSQPEIVPISNITENVYINLTCSSIHGYPEPKKMSVLLRTKNSTIEYDGVMQKSQDNVTELYDVSISLSVSFPDVTSNMTIFCILETDKTRLLSSPFSIELEDPQPPPDHIPWITAVLPTVIICVMVFCLILWKWKKKKRPRNSYKCGTNTMEREESEQTKKREKIHIPERSDEAQRVFKSSKTSSCDKSDTCF	24 ± 1.6	25.9 ± 0.81	4.6 ± 0.096	6.71 ± 0.18	–
MDPRKVNELRAFVKMCKQDPSVLHTEEMRFLREWVESMGGKVPPATQKAKSEENTKEEKPDSKKVEEDLKADEPSSEESDLEIDKEGVIEPDTDAPQEMGDENAEITEEMMDQANDKKVAAIEALNDGELQKAIDLFTDAIKLNPRLAILYAKRASVFVKLQKPNAAIRDCDRAIEINPDSAQPYKWRGKAHRLLGHWEEAAHDLALACKLDYDEDASAMLKEVQPRAQKIAEHRRKYERKREEREIKERIERVKKAREEHERAQREEEARRQSGAQYGSFPGGFPGGMPGNFPGGMPGMGGGMPGMAGMPGLNEILSDPEVLAAMQDPEVMVAFQDVAQNPANMSKYQSNPKVMNLISKLSAKFGGQA	–	–	–	–	percentage of EdU-negative [1, 12]: 24.8 ± 1.7%; percentage of EdU-negative [1, 13]: 27.4 ± 0.36%; percentage of EdU-negative [2, 12]: 4.96 ± 0.58%; percentage of EdU-negative [2, 13]: 5.35 ± 0.39%
MDPRLPAWALVLLGPALVFALGPAPTPEMREKLCGHHFVRALVRVCGGPRWSTEARRPATGGDRELLQWLERRHLLHGLVADSNLTLGPGLQPLPQTSHHHRHHRAAATNPARYCCLSGCTQQDLLTLCPY	27 ± 2.5	26.9 ± 2.5	6.04 ± 0.67	5.1 ± 0.54	–
MDRAARCSGASSLPLLLALALGLVILHCVVADGNSTRSPETNGLLCGDPEENCAATTTQSKRKGHFSRCPKQYKHYCIKGRCRFVVAEQTPSCVCDEGYIGARCERVDLFYLRGDRGQILVICLIAVMVVFIILVIGVCTCCHPLRKRRKRKKKEEEMETLGKDITPINEDIEETNIA	–	–	–	–	percentage of EdU-negative [1, 10]: 24.5 ± 1.2%; percentage of EdU-negative [1, 11]: 23.3 ± 0.42%; percentage of EdU-negative [2, 10]: 5.5 ± 0.31%; percentage of EdU-negative [2, 11]: 5.88 ± 0.75%
MDRGTLPLAVALLLASCSLSPTSLAETVHCDLQPVGPERGEVTYTTSQVSKGCVAQAPNAILEVHVLFLEFPTGPSQLELTLQASKQNGTWPREVLLVLSVNSSVFLHLQALGIPLHLAYNSSLVTFQEPPGVNTTELPSFPKTQILEWAAERGPITSAAELNDPQSILLRLGQAQGSLSFCMLEASQDMGRTLEWRPRTPALVRGCHLEGVAGHKEAHILRVLPGHSAGPRTVTVKVELSCAPGDLDAVLILQGPPYVSWLIDANHNMQIWTTGEYSFKIFPEKNIRGFKLPDTPQGLLGEARMLNASIVASFVELPLASIVSLHASSCGGRLQTSPAPIQTTPPKDTCSPELLMSLIQTKCADDAMTLVLKKELVAHLKCTITGLTFWDPSCEAEDRGDKFVLRSAYSSCGMQVSASMISNEAVVNILSSSSPQRKKVHCLNMDSLSFQLGLYLSPHFLQASNTIEPGQQSFVQVRVSPSVSEFLLQLDSCHLDLGPEGGTVELIQGRAAKGNCVSLLSPSPEGDPRFSFLLHFYTVPIPKTGTLSCTVALRPKTGSQDQEVHRTVFMRLNIISPDLSGCTSKGLVLPAVLGITFGAFLIGALLTAALWYIYSHTRSPSKREPVVAVAAPASSESSSTNHSIGSTQSTPCSTSSMA	25.3 ± 2.4	27.3 ± 2.9	4.75 ± 0.063	5.33 ± 0.45	–
MDRRSRAQQWRRARHNYNDLCPPIGRRAATALLWLSCSIALLRALATSNARAQQRAAAQQRRSFLNAHHRSGAQVFPESPESESDHEHEEADLELSLPECLEYEEEFDYETESETESEIESETDFETEPETAPTTEPETEPEDDRGPVVPKHSTFGQSLTQRLHALKLRSPDASPSRAPPSTQEPQSPREGEELKPEDKDPRDPEESKEPKEEKQRRRCKPKKPTRRDASPESPSKKGPIPIRRH	27.2 ± 2.3	25.8 ± 4.4	3.95 ± 0.71	5.43 ± 0.11	–
MDSDETGFEHSGLWVSVLAGLLLGACQAHPIPDSSPLLQFGGQVRQRYLYTDDAQQTEAHLEIREDGTVGGAADQSPESLLQLKALKPGVIQILGVKTSRFLCQRPDGALYGSLHFDPEACSFRELLLEDGYNVYQSEAHGLPLHLPGNKSPHRDPAPRGPARFLPLPGLPPALPEPPGILAPQPPDVGSSDPLSMVGPSQGRSPSYAS [Q9NSA1]	–	–	–	–	percentage of EdU-negative [1, 10]: 25 ± 1.2%; percentage of EdU-negative [1, 11]: 23.9 ± 1.2%; percentage of EdU-negative [2, 10]: 4.59 ± 0.26%; percentage of EdU-negative [2, 11]: 5.63 ± 0.48%
MDSSREPTLGRLDAAGFWQVWQRFDADEKGYIEEKELDAFFLHMLMKLGTDDTVMKANLHKVKQQFMTTQDASKDGRIRMKELAGMFLSEDENFLLLFRRENPLDSSVEFMQIWRKYDADSSGFISAAELRNFLRDLFLHHKKAISEAKLEEYTGTMMKIFDRNKDGRLDLNDLARILALQENFLLQFKMDACSTEERKRDFEKIFAYYDVSKTGALEGPEVDGFVKDMMELVQPSISGVDLDKFREILLRHCDVNKDGKIQKSELALCLGLKINP	40.5 ± 16	25.7 ± 0.85	4.77 ± 0.84	5.6 ± 0.67	–
